Results from patent US20250179152A1.

B1: SR16m (designed binder)
chain: MGSSDLGKKLLEAARAGQDDEVRILMANGADVNALDLFGVTPLHLAAERGHLEIVEVLLKNGADVNAGDAFGRTPLHLAALGGHLEIVEVLLKNGADVNACDLYGVTPLHLAAGLGHLEIVEVLLKNGADVNAQDKFGKTAFDISIDNGNEDLAEILQSSSKLAAALEHHHHHH
B2: SR22 (designed binder)
chain: MGSSHHHHHHSSGLVPRGSHMEQKLISEEDLGSDLGKKLLEAARAGQDDEVRILMANGADVNACDPSGITPLHLAADKGHLEIVEVLLKYGADVNAMDVWGRTPLHLAAFTGHLEIVEVLLKYGADVNACDLNGYTPLHLAAGRGHLEIVEVLLKNGAGVNAQDKFGKTAFDISIDNGNEDLAEILQSSS
B3: FSR16m (designed binder)
chain: MGMEQKLISEEDLDGYIPEAPRDGQAYVRKDGEWVLLSTFLGGGGSLQGGGGSLQGSDLGKKLLEAARAGQDDEVRILMANGADVNALDLFGVTPLHLAAERGHLEIVEVLLKNGADVNAGDAFGRTPLHLAALGGHLEIVEVLLKNGADVNACDLYGVTPLHLAAGLGHLEIVEVLLKNGADVNAQDKFGKTAFDISIDNGNEDLAEILQSSSKLAAALEHHHHHH

Target: wild type Δ19 spike protein on pseudotyped lentivirus (SARS-CoV-2 (Wuhan-1)), P0DTC2
Experiment: cell-based or functional assay

Row | Binder | IC50, pseudotyped lentivirus [µM] | Neutralization IC50, pseudotyped lentivirus [µM] | fold enhancement of neutralization IC50 upon trimerization (against SR16m) [fold]
1 | B1 | 11 | 11.6 | 
2 | B2 |  | 0.7 | 
3 | B3 |  |  | 35000
